Here are results for five proteins from ChEMBL document CHEMBL3525932, “Comparison of metabolism of sesamin and episesamin by drug-metabolizing enzymes in human liver” (Drug Metab Dispos, 2012).

Substrate in series [1]: [H][C@]12CO[C@@H](c3ccc(O)c(O)c3)[C@@]1([H])CO[C@@H]2c1ccc2c(c1)OCO2
As to the kind of experiment: (§1) Drug metabolism in human liver cytosol assessed as COMT-mediated methylation after 10 to 30 mins by HPLC analysis in presence of SAM. It is filed as ADME.

Substrate in series [2]: [H][C@]12CO[C@@H](c3ccc4c(c3)OCO4)[C@@]1([H])CO[C@@H]2c1ccc(O)c(O)c1
Described as §1. It is filed as ADME.

Substrate in series [3]: [H][C@]12CO[C@H](c3ccc4c(c3)OCO4)[C@@]1([H])CO[C@@H]2c1ccc(O)c(O)c1
Described as §1. It is filed as ADME.

Substrate in series [4]: c1cc2c(cc1[C@H]1OC[C@H]3[C@@H]1CO[C@@H]3c1ccc3c(c1)OCO3)OCO2
As to the kind of experiment: Activity of recombinant human CYP2C9 expressed in Saccharomyces cerevisiae AH22 cells assessed as enzyme-mediated sesamin monocatecholization after 15 mins by Michaelis-Menten plot analysis in presence of NADPH. It is filed as ADME, cell-based.

Substrate in series [5]: [H][C@]12CO[C@H](c3ccc4c(c3)OCO4)[C@@]1([H])CO[C@@H]2c1ccc(O)c(O)c1
Nature of the series: Activity of recombinant human CYP2C19 expressed in Saccharomyces cerevisiae AH22 cells assessed as enzyme-mediated sesamin dicatechol formation after 15 mins by HPLC analysis in presence of NADPH. It is filed as ADME, cell-based.

Substrate in series [6]: [H][C@]12CO[C@@H](c3ccc(O)c(O)c3)[C@@]1([H])CO[C@@H]2c1ccc2c(c1)OCO2
As to the kind of experiment: (§2) Activity of recombinant human CYP2C19 expressed in Saccharomyces cerevisiae AH22 cells assessed as enzyme-mediated episesamin dicatechol formation after 15 mins by HPLC analysis in presence of NADPH. It is filed as ADME, cell-based.

Substrate in series [7]: [H][C@]12CO[C@@H](c3ccc4c(c3)OCO4)[C@@]1([H])CO[C@@H]2c1ccc(O)c(O)c1
The series is described as §2. It is filed as ADME, cell-based.

Substrate in series [8]: [H][C@]12CO[C@@H](c3ccc(O)c(O)c3)[C@@]1([H])CO[C@@H]2c1ccc2c(c1)OCO2
As to the kind of experiment: (§3) Drug metabolism in Sprague-Dawley rat liver cytosol assessed as COMT-mediated methylation after 10 to 30 mins by HPLC analysis in presence of SAM. It is filed as ADME.

Substrate in series [9]: [H][C@]12CO[C@@H](c3ccc4c(c3)OCO4)[C@@]1([H])CO[C@@H]2c1ccc(O)c(O)c1
The series is described as §3. It is filed as ADME.

Substrate in series [10]: [H][C@]12CO[C@H](c3ccc4c(c3)OCO4)[C@@]1([H])CO[C@@H]2c1ccc(O)c(O)c1
The description is as §3. It is filed as ADME.

Substrate in series [11]: c1cc2c(cc1[C@H]1OC[C@H]3[C@@H]1CO[C@@H]3c1ccc3c(c1)OCO3)OCO2
As to the kind of experiment: Activity of recombinant human CYP1A2 expressed in Saccharomyces cerevisiae AH22 cells assessed as enzyme-mediated sesamin monocatecholization after 15 mins by Michaelis-Menten plot analysis in presence of NADPH. It is filed as ADME, cell-based.

In general, Km refers to the concentration of substrate that gives half-maximal velocity. In general, Vmax refers to the rate approached at saturating substrate. As a reminder, the kcat is the maximal rate divided by the concentration of active sites. One may read the kcat/Km as the turnover number divided by the Michaelis constant.

B1: Catechol O-methyltransferase (Homo sapiens) (protein)
chain: MPEAPPLLLAAVLLGLVLLVVLLLLLRHWGWGLCLIGWNEFILQPIHNLLMGDTKEQRILNHVLQHAEPGNAQSVLEAIDTYCEQKEWAMNVGDKKGKIVDAVIQEHQPSVLLELGAYCGYSAVRMARLLSPGARLITIEINPDCAAITQRMVDFAGVKDKVTLVVGASQDIIPQLKKKYDVDTLDMVFLDHWKDRYLPDTLLLEECGLLRKGTVLLADNVICPGAPDFLAHVRGSSCFECTHYQSFLEYREVVDGLEKAIYKGPGSEAGP
On to B1, for which the Km in [1] was found to be 2.5 µM; in [2] it was 2.4 µM; in [3], 5.6 µM. Moreover, the Vmax is 0.00071 µmol/min in series [1], 0.00059 µmol/min in series [2] and 0.0013 µmol/min in [3].

B2: Cytochrome P450 2C9 (Homo sapiens) (protein)
chain: MDSLVVLVLCLSCLLLLSLWRQSSGRGKLPPGPTPLPVIGNILQIGIKDISKSLTNLSKVYGPVFTLYFGLKPIVVLHGYEAVKEALIDLGEEFSGRGIFPLAERANRGFGIVFSNGKKWKEIRRFSLMTLRNFGMGKRSIEDRVQEEARCLVEELRKTKASPCDPTFILGCAPCNVICSIIFHKRFDYKDQQFLNLMEKLNENIKILSSPWIQICNNFSPIIDYFPGTHNKLLKNVAFMKSYILEKVKEHQESMDMNNPQDFIDCFLMKMEKEKHNQPSEFTIESLENTAVDLFGAGTETTSTTLRYALLLLLKHPEVTAKVQEEIERVIGRNRSPCMQDRSHMPYTDAVVHEVQRYIDLLPTSLPHAVTCDIKFRNYLIPKGTTILISLTSVLHDNKEFPNPEMFDPHHFLDEGGNFKKSKYFMPFSAGKRICVGEALAGMELFLFLTSILQNFNLKSLVDPKNLDTTPVVNGFASVPPFYQLCFIPV
Take B2: in series [4], the Km came to 5.4 µM, the kcat was 0.0517 s⁻¹ and the kcat/Km is 9500 M⁻¹ s⁻¹.

B3: Cytochrome P450 2C19 (Homo sapiens) (protein)
chain: MDPFVVLVLCLSCLLLLSIWRQSSGRGKLPPGPTPLPVIGNILQIDIKDVSKSLTNLSKIYGPVFTLYFGLERMVVLHGYEVVKEALIDLGEEFSGRGHFPLAERANRGFGIVFSNGKRWKEIRRFSLMTLRNFGMGKRSIEDRVQEEARCLVEELRKTKASPCDPTFILGCAPCNVICSIIFQKRFDYKDQQFLNLMEKLNENIRIVSTPWIQICNNFPTIIDYFPGTHNKLLKNLAFMESDILEKVKEHQESMDINNPRDFIDCFLIKMEKEKQNQQSEFTIENLVITAADLLGAGTETTSTTLRYALLLLLKHPEVTAKVQEEIERVIGRNRSPCMQDRGHMPYTDAVVHEVQRYIDLIPTSLPHAVTCDVKFRNYLIPKGTTILTSLTSVLHDNKEFPNPEMFDPRHFLDEGGNFKKSNYFMPFSAGKRICVGEGLARMELFLFLTFILQNFNLKSLIDPKDLDTTPVVNGFASVPPFYQLCFIPV
With B3, the figures for the Km in series [5], in series [6] and in series [7] were 5.1 µM, 7.3 µM and 7.3 µM, respectively. The kcat worked out at 0.233 s⁻¹ in series [5], 0.25 s⁻¹ in series [6] and 0.25 s⁻¹ in series [7].

B4: Catechol O-methyltransferase (Rattus norvegicus) (protein)
chain: MPLAAVSLGLLLLALLLLLRHLGWGLVTIFWFEYVLQPVHNLIMGDTKEQRILRYVQQNAKPGDPQSVLEAIDTYCTQKEWAMNVGDAKGQIMDAVIREYSPSLVLELGAYCGYSAVRMARLLQPGARLLTMEMNPDYAAITQQMLNFAGLQDKVTILNGASQDLIPQLKKKYDVDTLDMVFLDHWKDRYLPDTLLLEKCGLLRKGTVLLADNVIVPGTPDFLAYVRGSSSFECTHYSSYLEYMKVVDGLEKAIYQGPSSPDKS
B4: the values for the Michaelis-Menten constant (Km) in series [8], in series [9] and in [10] were 5.5 µM, 7.7 µM and 9.2 µM, respectively. The Vmax was found to be 0.0024 µmol/min in series [8], 0.0032 µmol/min in series [9] and 0.0033 µmol/min in [10].

B5: Cytochrome P450 1A2 (Homo sapiens) (protein)
chain: MALSQSVPFSATELLLASAIFCLVFWVLKGLRPRVPKGLKSPPEPWGWPLLGHVLTLGKNPHLALSRMSQRYGDVLQIRIGSTPVLVLSRLDTIRQALVRQGDDFKGRPDLYTSTLITDGQSLTFSTDSGPVWAARRRLAQNALNTFSIASDPASSSSCYLEEHVSKEAKALISRLQELMAGPGHFDPYNQVVVSVANVIGAMCFGQHFPESSDEMLSLVKNTHEFVETASSGNPLDFFPILRYLPNPALQRFKAFNQRFLWFLQKTVQEHYQDFDKNSVRDITGALFKHSKKGPRASGNLIPQEKIVNLVNDIFGAGFDTVTTAISWSLMYLVTKPEIQRKIQKELDTVIGRERRPRLSDRPQLPYLEAFILETFRHSSFLPFTIPHSTTRDTTLNGFYIPKKCCVFVNQWQVNHDPELWEDPSEFRPERFLTADGTAINKPLSEKMMLFGMGKRRCIGEVLAKWEIFLFLAILLQQLEFSVPPGVKVDLTPIYGLTMKHARCEHVQARLRFSIN
B5: in series [11], the Km is 15 µM, the kcat is 0.0833 s⁻¹ and the kcat/Km came out at 5500 M⁻¹ s⁻¹.
